One molecule from PMC6208348 (Nature Communications, 2018) can be followed below.

Non-standard residues stand in square brackets, D forms with d. No end group written: not given here. pY = N[C@@H](Cc1ccc(OP(=O)(O)O)cc1)C(=O)O

This test concerns the target GST-fused Grb2 SH2 domain (human, UniProt P62993 60-152). Kind of test: peptide or protein array. The note with it: both partners purified.

GST-fused Grb2 SH2 domain, sequence (P62993 60-152): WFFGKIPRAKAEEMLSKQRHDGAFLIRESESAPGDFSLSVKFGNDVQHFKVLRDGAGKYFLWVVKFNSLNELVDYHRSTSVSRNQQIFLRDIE

B1: Shc1 pTyr317 peptide (DPSpYVNVQNL) on the permutation array (peptide)
peptide: DPS[pY]VNVQNL
As to B1, the binding result is listed as “binds”.
